Reference: PMC5880808, “A lever-like transduction pathway for long-distance chemical- and mechano-gating of the mechanosensitive Piezo1 channel” (Nature Communications, 2018)
Values belong to the substance of their own block, whether it stands above or below them.

How the values were obtained:
Assay in all cases: SEC; Superose-6 10/300 GL (FPLC) in 25 mM Na-PIPES pH 7.2, 140 mM NaCl, 2 mM DTT, 0.026% C12E10; oligomeric state judged from the peak position against wild-type mPiezo1
mouse Piezo1 (mouse) = mouse Piezo1 (mouse) (UniProt E2JF22); settings: remark: other sources report otherwise
[1] = biological target: mPiezo1-ΔL19-20 (870–921) (mouse) (UniProt E2JF22)
[2] = biological target: mPiezo1-ΔL15-16 (657-677) (mouse) (UniProt E2JF22)

stoichiometry N (mouse Piezo1 (mouse)): 3
Substance: mouse Piezo1, E2JF22 1-2547

stoichiometry N [1]: 3
Substance: mPiezo1-ΔL19-20 (870–921), E2JF22 1-869; E2JF22 922-2547

stoichiometry N [2]: 3
Substance: mPiezo1-ΔL15-16 (657-677), E2JF22 1-656; E2JF22 678-2547
